The target in assay [1] is T1, cynomolgus monkey Siglec15-his protein (cynomolgus monkey).
T1 construct: In house made; also called Cynomolgus Siglec15-his; cynomolgus Siglec15
T1 chain: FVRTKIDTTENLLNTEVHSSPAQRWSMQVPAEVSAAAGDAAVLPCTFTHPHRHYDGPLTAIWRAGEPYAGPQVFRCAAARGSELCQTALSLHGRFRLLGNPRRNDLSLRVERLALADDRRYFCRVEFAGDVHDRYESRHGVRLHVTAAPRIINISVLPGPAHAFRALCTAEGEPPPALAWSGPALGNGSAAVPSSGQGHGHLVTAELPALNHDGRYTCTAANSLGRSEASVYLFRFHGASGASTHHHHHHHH
Nature of the assay: indirect ELISA on coated cynomolgus Siglec15-his. How it is done:
(§1) The anti-Siglec15 antibodies' cross-reactions to cynomolgus or mouse Siglec15 proteins were measured. Briefly, 96-well micro plates were coated with 100 μl of 2 μg/ml cynomolgus Siglec15-his protein (in house made with SEQ ID NO: 21), or 2 μg/ml mouse Siglec15-his protein (in house made with SEQ ID NO: 22) in carbonate/bicarbonate buffer (pH 9.6) for 2 hours at 37° C. ELISA plates were washed once with wash buffer (PBS+0.05% v/v Tween-20, PBST) and then blocked with 200 μl/well blocking buffer (5% w/v non-fatty milk in PBST) overnight at 4° C. Plates were washed 4 times and incubated with 100 μl serially diluted anti-Siglec15 antibodies of the disclosure or controls (starting at 66.7 nM, 5-fold serial dilution in PBST with 2.5% w/v non-fatty milk) for 40 minutes at 37° C. ELISA plates were washed 4 times again and incubated with Peroxidase AffiniPure Goat Anti-Human IgG, F(ab)₂ fragment specific (1:5000 dilution in PBST buffer, Jackson Immunoresearch, Cat #109-035-097, 100 μl/well) for 40 minutes at 37° C. After a final wash, plates were incubated with 100 μl/well TMB (Innoreagents, Cat #TMB-S-002). The reaction was stopped 4 minutes later at room temperature with 50 μl 1M H₂SO₄, and the absorbance of each well was read on a microplate reader using dual wavelength mode with 450 nm for TMB and 630 nm as the reference wavelength, then the OD (450-630) values were plotted against antibody concentration. Data was analyzed using Graphpad Prism software and EC₅₀ values were reported.

In assay [2] the target is T2, human Siglec15 on human-siglec15-2D3-1E1 cells (human, UniProt Q6ZMC9 20-328).
T2 construct: whole, on cells; Transfected HEK-293 cells; also called cell surface human Siglec15
T2 sequence (looked up): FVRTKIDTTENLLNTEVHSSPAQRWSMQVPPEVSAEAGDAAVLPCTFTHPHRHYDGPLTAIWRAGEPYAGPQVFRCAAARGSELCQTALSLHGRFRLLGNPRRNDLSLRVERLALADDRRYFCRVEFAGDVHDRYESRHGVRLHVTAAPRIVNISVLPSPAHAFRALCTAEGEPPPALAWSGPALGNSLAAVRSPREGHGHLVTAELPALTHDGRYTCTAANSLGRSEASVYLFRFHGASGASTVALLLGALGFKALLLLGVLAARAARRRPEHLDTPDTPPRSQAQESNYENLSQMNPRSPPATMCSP
Nature of the assay: cell based binding FACS on human-siglec15-2D3-1E1 cells. How it is done: (§2) The binding activities of the anti-Siglec15 antibodies to cell surface Siglec15 were tested by flow cytometry (FACS), using in-house prepared human-siglec15-2D3-1E1 cells expressing human Siglec15 (amino acid residues Met1-Pro328 of uniprot #Q6ZMC9) on cell membranes. The human-siglec15-2D3-1E1 cells were prepared by transfecting HEK-293 cells (ATCC #CRL-1573) with pCMV-T-P plasmids inserted with human Siglec15 coding sequence between EcoRI and XbaI sites, following the instruction of lipofectamine 3000 transfection reagent (Thermo Fisher). The human-siglec15-2D3-1E1 cells were harvested from cell culture flasks, washed twice and re-suspended in phosphate buffered saline (PBS) containing 2% v/v Fetal Bovine Serum (FACS buffer). 2×10⁵ cells per well in 96 well-plates were incubated in 100 μL serially diluted anti-Siglec15 antibodies or controls (starting at 66.67 nM, 5-fold serial dilution) in FACS buffer for 40 minutes on ice. […] Following a 40-minute incubation at 4° C. in dark, cells were washed three times and re-suspended in FACS buffer. Fluorescence was measured using a Becton Dickinson FACS Canto II-HTS equipment. Data was analyzed using Graphpad Prism software and EC₅₀ values were reported.

For assay [3], the target named is T3, human Siglec15-Fc protein (human).
T3 construct: In house made; also called recombinant human Siglec15 protein with human IgG1 Fc at the C-terminus
Put plainly: competitive ELISA: biotin-labeled human Siglec15-Fc in solution, competitor coated benchmark. Here is the method:
(§3) The abilities of the anti-Siglec15 antibodies of the disclosure to block benchmark-human Siglec15 binding were measured in a competitive ELISA assay. Briefly, the benchmark was coated on 96-well micro plates at 2 μg/mL in PBS, 100 μl per well, and incubated for 2 hours at 37° C. Then plates were washed once with wash buffer, and blocked with 5% w/v non-fatty milk in PBST overnight at 4° C. The next day, the anti-Siglec15 antibodies of the disclosure or controls were diluted with biotin labeled human Siglec15-Fc protein (prepared in-house with SEQ ID NO: 19, 37 ng/ml in PBST with 2.5% w/v non-fatty milk), starting at 80 nM with a 4-fold serial dilution, and incubated at room temperature for 40 minutes. After plate washing 4 times, the antibody/Siglec15-Fc mixtures were added to benchmark coated plates, 100 μl per well. After incubation at 37° C. for 40 minutes, plates were washed 4 times again using wash buffer. Then the plates were added and incubated with 100 μl/well streptavidin conjugated HRP for 40 minutes at 37° C. Plates were washed again using wash buffer. Finally, TMB was added and the reaction was stopped using 1M H₂SO₄, and the absorbance of each well was read on a microplate reader using dual wavelength mode with 450 nm for TMB and 630 nm as the reference wavelength, then the OD (450-630) values were plotted against antibody concentration. Data was analyzed using Graphpad Prism software and IC₅₀ values were reported.
On the technique in general: In an ELISA, binding on a coated surface is turned into a signal by an enzyme label.
Target sequence in this assay (chain, as listed by the source limits assumed): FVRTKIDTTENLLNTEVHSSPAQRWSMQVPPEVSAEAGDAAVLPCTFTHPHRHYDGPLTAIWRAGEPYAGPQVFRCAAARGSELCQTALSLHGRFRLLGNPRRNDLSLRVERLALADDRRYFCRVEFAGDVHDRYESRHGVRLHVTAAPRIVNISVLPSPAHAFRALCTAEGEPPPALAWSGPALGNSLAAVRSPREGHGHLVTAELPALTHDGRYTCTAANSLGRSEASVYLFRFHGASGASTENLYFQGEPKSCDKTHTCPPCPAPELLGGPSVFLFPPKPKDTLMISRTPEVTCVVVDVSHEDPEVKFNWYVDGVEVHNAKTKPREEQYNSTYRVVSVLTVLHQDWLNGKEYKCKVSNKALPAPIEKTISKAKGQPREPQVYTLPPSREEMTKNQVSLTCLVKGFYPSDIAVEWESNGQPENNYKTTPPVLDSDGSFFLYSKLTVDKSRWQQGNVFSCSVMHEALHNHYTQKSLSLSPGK

The target of assay [4] is T3, human Siglec15-Fc protein. Described as above. Here is the method: as §3, with “Plates were washed again using wash buffer.” left out
The source holds these as a separate data set.

For assay [5], the target named is T1, cynomolgus monkey Siglec15-his protein. Nature of the assay: indirect ELISA on coated cynomolgus Siglec15-his. Here is the method:
as §1

The target in assay [6] is T2, human Siglec15 on …. Nature of the assay: cell based binding FACS on human-siglec15-2D3-1E1 cells. Here is the method: as §2
This is another data set of the same source.

The values that follow come from US20230106715A1 (BIOSION, published 2023).

Where two headings read alike, the source gives them in different places.

B1: A1E10G7H9 (antibody, V domains shown)
VH: QVQLQESGPGLVKPSGTLSLTCAVSGGSISSSNWWHWVRQPPGKGLEWIGEIYHSGNTNYKPSLKSRVTISVDKSKNQFSLKLSSVTAADTAVYYCARDEGNGWSNAFDIWGQGTMVTVSS
VL: ENVLTQSPGTLSLSPGERVTLSCRASQSVSSSYLAWYQQKPGQAPRFLIYGASGGATGIPDRFSGSGSGTDFTLTISRLEPEDFAVYYCQQYGSSPITFGQGTRLEIK
notes: Fully human antibody from transgenic mouse hybridoma
Turning to B1, the EC50 – broadly, the concentration giving half of the maximal effect – in assay [1] is 0.509 nM; in assay [2], 0.182 nM.

B2: A2A5C7E8 (antibody, V domains shown)
VH: EVQLVQSGAEVKKPGESLRISCKGSGYSFTTYWISWVRQMPGKGLEWMGLIDPSDSYTNYSPSFQGHVTISTDKSISTAYLQWSSLKASDTAMYYCARGGYYGSEEDYWGQGTLVTVSS
VL: EIVLTQSPGTLSLSPGERATLSCRASQSVSSSRLAWFQQKSGQAPRLLIFDASSRATGIPDRFSGSGSGTDFTLTISRLEPEDFAVYYCQQYGSSPRTFGQGTKVEFK
notes: Fully human antibody from transgenic mouse hybridoma; also called A2A5C7E8-1
Take B2: the EC50 in assay [1] worked out at 0.521 nM; in assay [2] it was 24.1 nM. In addition, the half-inhibitory concentration (IC50) (as a rule, the point on the concentration scale where inhibition reaches its midpoint) in assay [3] was 0.0387 nM; in assay [4] it was 0.0836 nM.

B3: A2A5C7E8-2 (antibody, human IgG1, kappa, V domains shown)
VH: EVQLVQSGAEVKKPGESLRISCKGSGYSFTTYWISWVRQMPGKGLEWMGLIDPSESYTNYSPSFQGHVTISTDKSISTAYLQWSSLKASDTAMYYCARGGYYGSEEDYWGQGTLVTVSS
VL: EIVLTQSPGTLSLSPGERATLSCRASQSVSSSRLAWFQQKSGQAPRLLIFDASSRATGIPDRFSGSGSGTDFTLTISRLEPEDFAVYYCQQYGSSPRTFGQGTKVEFKR
notes: Variant of A2A5C7E8 modified in VH CDR2 (X1 = E)
Take B3: the IC50 in assay [3] was 0.0178 nM.

B4: A2A5C7E8-3 (antibody, human IgG1, kappa, V domains shown)
VH: EVQLVQSGAEVKKPGESLRISCKGSGYSFTTYWISWVRQMPGKGLEWMGLIDPSDSYTNYSPSFKGHVTISTDKSISTAYLQWSSLKASDTAMYYCARGGYYGSEEDYWGQGTLVTVSS
VL: EIVLTQSPGTLSLSPGERATLSCRASQSVSSSRLAWFQQKSGQAPRLLIFDASSRATGIPDRFSGSGSGTDFTLTISRLEPEDFAVYYCQQYGSSPRTFGQGTKVEFKR
notes: Variant of A2A5C7E8 modified in VH CDR2 (X2 = K)
Consider B4, for which the IC50 in assay [3] is 0.0357 nM.

B5: anti-Siglec15 benchmark (ch5G12) (antibody, human IgG1, kappa, V domains shown)
VH: QVQLQQPGAELVKPGASVKMSCKASGYTFTSYWITWVIQRPGQGLEWIGDIYCGSDTMHYNEKFKNKATLTVDTSSSTAYMQLSSLTSEDSAVYYCARWWDYGSSYDYFDYWGQGTTLTVSS
VL: DIKMTQSPSSMYASLGERVTITCKASQDINSYLSWFQQKPGKSPKTLIYRANRLVDGVPSRFSGSGSGQDYSLTISSLEYEDMGIYYCLQYDEFPYTFGGGTKLEIKR
notes: ch5G12 (US 20190202912A1); also called BM; Siglec15-ch5G9
As for B5, the EC50 in assay [5] stood at 0.201 nM; in assay [1] it was 0.652 nM; in assay [2], 11.3 nM; in assay [6] it was 19.8 nM. The IC50 was found to be 0.229 nM in assay [3] and 0.253 nM in assay [4].

B6: B2D7H7A3C1 (antibody, V domains shown)
VH: QVQLQQSGAELVRPGTSVQMSCKAAGYTFTNYWIGWVKQRPGHGLEWVGDIHPGINYTNNNEKFRGKATLTADTSSNTAYMQLRGLTSDDSAIYYCARVDYDYDGSYIMDYWGQGTSVTVSS
VL: QIVLSQSPALLSASPGEKVTMTCRASSSVSYMYWYQQKPGSSPKPWIYATSNLTSGVPARFSGSGSGTSYSLTISRVEAEDAATYFCQQWNSKPWTFGGGSKLEIR
notes: Mouse monoclonal antibody from hybridoma; also called mouse B2D7H7A3C1
Molecule B6 registered an EC50 in assay [5] of 0.197 nM.

B7: B2G12H3E8 (antibody, V domains shown)
VH: QVQLKQSGAELVRPGTSVQMSCKAVGYTFTNYWIGWVKQRPGHGLEWVGDIHPGINYTNNNEKFRGKATLTADTSSSTAYMQLRGLTSDDSAIYYCARVDYDYDGSYIMDYWGQGTSVTVSS
VL: QIVLSQSPALLSASPGEKVTMTCRASSSVSYMYWYQQKPGSSPKPWIYATSNLTSGVPARFSGSGSGTSYSLTISRVEAEDAATYFCQQWNSKPWTFGGGSKLEIR
notes: Mouse monoclonal antibody from hybridoma; also called mouse B2G12H3E8
On to B7, for which, in assay [5], the midpoint of the response, the EC50, lay at 0.146 nM.

B8: B2H2H1H7 (antibody, V domains shown)
VH: QVQLQQSGAELVRPGTSVQMSCKAAGYTFTNYWIGWVKQRPGHGLEWVGDIHPGINYTNNNEKFRGKATLTADTSSSTAYMQLRGLTSDDSAIYYCARVDYDYDGSYIMDYWGQGTSVTVSS
VL: QIILSQSPALLSASPGEKVTMTCRASSSVSYMYWYQQKPGSSPKPWIYATSNLTSGVPARFSGSGSGTSYSLTISRVEAEDAATYFCQQWNSKPWTFGGGSRLEIR
notes: Mouse monoclonal antibody from hybridoma; also called mouse B2H2H1H7; B2H2H1A7
Consider B8, for which the EC50 in assay [5] was 0.179 nM.
